The source of these data is patent US12667614B2, “Bacterial microcompartment virus-like particles” (National University of Singapore, priority 2020, dated 2026).

Substrate in data set [1]: COc1ccccc1O
The experiment in a line: Steady-state kinetics of free APEX2 (guaiacol oxidation). Format: biochemical, pea. The settings on record: other: free APEX2 10 nM, guaiacol 0.20 to 2.0 mM, H2O2 1 mM, TBS-50/350 pH 8.0, mean with standard error, triplicates, 30.0 °C. As to the method: (§1) For APEX2, all reagents were made to the appropriate working concentrations using TBS-50/350 pH 8.0. Working solutions of guaiacol and H2O2, both at 10 mM, were prepared on the day of assay. The guaiacol solution was shaken vigorously at 30° C. to ensure complete dissolution before equilibration back to room temperature. The assay concentration for APEX2 was 10 nM, H2O2 1 mM and that for guaiacol ranged from 0.20 to 2.0 mM. Total reaction volume was 200 μL. Reactions were monitored by the absorbance of tetraguaiacol formed at 470 nm using a BioTek Synergy™ HT microplate reader. […] This time point was taken for initial rate, V0, measurement. Kinetic constants were obtained using non-linear least square Michaelis-Menten fitting in GraphPad Prism software.
To probe the capacity of the Cso-BMC for encasing enzymes of considerably different molecular sizes, an evolved pea cytosolic ascorbate peroxidase (APEX2), a 27.0 kDa monomer [Lam et al., Nature Methods 12(1): 51-54 (2015)], and E. coli beta-galactosidase (LacZ), a 466.0 kDa homotetramer, were chosen for encapsulation [Golan, et al., Biochimica et Biophysica Acta (BBA)—Bioenergetics, 1293(2): 238-242; Lam et al., Nature Methods 12(1): 51-54 (2015)]. […] Enzymes were also N-terminally tagged with the hexahistidine (Hiss) tag to facilitate downstream removal of unencapsulated enzymes that might co-purify with shells (Nichols, Kennedy, & Tullman-Ercek, 2019). Cso-PSIIH shells co-expressed with enzymes were constructed and purified. SDS-PAGE analysis and Western blotting confirmed the presence of the target enzymes in shell samples (FIG. 18A-B) and the average copy numbers of enzymes per shell were estimated by Coomassie blue densitometry (Table 8) [Hagen, A., et al., Nature Communications 9: 2881 (2018); Nichols et al., Methods in Enzymology, 617, 155-186 (2019)].
Encapsulation of an enzyme into a protein shell is known to alter the enzyme's catalytic properties in some cases. […]

Substrate in data set [2]: COc1ccccc1O
The experiment in a line: Steady-state kinetics of Cso-BMC encapsulated APEX2 (guaiacol oxidation). Format: biochemical, pea. The settings on record: other: encapsulated APEX2 10 nM, guaiacol 0.20 to 2.0 mM, H2O2 1 mM, TBS-50/350 pH 8.0, mean with standard error, triplicates, 30.0 °C. The procedure: as §1
To probe the capacity of the Cso-BMC for encasing enzymes of considerably different molecular sizes, an evolved pea cytosolic ascorbate peroxidase (APEX2), a 27.0 kDa monomer [Lam et al., Nature Methods 12(1): 51-54 (2015)], and E. coli beta-galactosidase (LacZ), a 466.0 kDa homotetramer, were chosen for encapsulation [Golan, et al., Biochimica et Biophysica Acta (BBA)—Bioenergetics, 1293(2): 238-242; Lam et al., Nature Methods 12(1): 51-54 (2015)]. […]

Broadly, the Km is the concentration of substrate that gives half-maximal velocity. As usually defined, the kcat is the maximal rate divided by the concentration of active sites.

B1: Free APEX2 (evolved pea cytosolic ascorbate peroxidase), N-terminal His6, fused to S2CP(30); APEX2-S2CP(30), SEQ ID NO: 110 (Glycine max; A134P/E112K/K14D/W41F) (protein)
chain: MGSSHHHHHHSSGMGKSYPTVSADYQDAVEKAKKKLRGFIAEKRCAPLMLRLAFHSAGTFDKGTKTGGPFGTIKHPAELAHSANNGLDIAVRLLEPLKAEFPILSYADFYQLAGVVAVEVTGGPKVPFHPGREDKPEPPPEGRLPDPTKGSDHLRDVFGKAMGLTDQDIVALSGGHTIGAAHKERSGFEGPWTSNPLIFDNSYFTELLSGEKEGLLQLPSDKALLSDPVFRPLVDKYAADEDAFFADYAEAHQKLSELGFADAGSSKPEKPGSKITGSSGNDTQGSLITYSGGARG
Take B1: in data set [1], the Michaelis constant (Km) worked out at 580 ± 70 µM, the catalytic constant (kcat) came out at 460 ± 20 s⁻¹ and the kcat/Km is reported as 7.93 ± 1.02 × 10^5 (s^−1 · M^−1).

B2: APEX2 + shell: APEX2 (evolved pea cytosolic ascorbate peroxidase), N-terminal His6, fused to S2CP(30), SEQ ID NO: 110, encapsulated in Cso-BMC (Cso-PSIIH) … (protein)
chain: B1 chain
For B2, in data set [2], the Michaelis constant (Km) is 790 ± 120 µM.
